Experimental data published in publication PMC6303327.

Tests used:
[1] = molecular target: Rfa3 OB domain (DBD-E), residues 1-99, without the C-terminal trimerisation helix (S. cerevisiae) (UniProt P26755); assay: MST; as the MST without ssDNA, but in the presence of excess ssDNA (dT10 at 2 µM in each binding reaction; grey trace); replicated twice; apparent EC50 from the Hill equation
[2] = molecular target: Rfa3 OB domain (DBD-E), residues 1-99, without the C-terminal trimerisation helix (S. cerevisiae) (UniProt P26755); assay: MST; 50 nM NT-495-labelled DBD-E mixed with equal volumes of a dilution series of DBD-A; 20 mM Tris pH 7.5, 150 mM NaCl, 0.5 mM TCEP, 0.01% Tween-20, 0.1 mg/ml BSA; 25 °C; no ssDNA (black trace); apparent EC50 from the Hill equation

Chain of Rfa3 OB domain (DBD-E), residues 1-99, without the C-terminal trimerisation helix (S. cerevisiae) (P26755 1-99): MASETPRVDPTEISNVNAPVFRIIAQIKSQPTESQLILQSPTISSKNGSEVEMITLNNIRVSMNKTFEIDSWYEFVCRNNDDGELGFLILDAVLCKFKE
Chain of Rfa1 DNA-binding domain A (DBD-A), residues 178-294 (P22336 178-294): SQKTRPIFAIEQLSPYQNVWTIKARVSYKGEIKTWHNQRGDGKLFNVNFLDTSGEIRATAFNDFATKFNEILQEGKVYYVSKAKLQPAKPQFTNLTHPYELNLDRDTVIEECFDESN

EC50 [1] [µM] | EC50 [2] [µM] | Substance
25 | 23 | Rfa1 DNA-binding domain A (DBD-A), residues 178-294, phosphomimetic S178D mutant (from UniProt P22336 178-294) (domain or fragment)
84 | 96 | Rfa1 DNA-binding domain A (DBD-A), residues 178-294 (from UniProt P22336 178-294) (domain or fragment)
